We go through two molecules from US20020081718, “POLYPEPTIDE, AND A DNA SEQUENCE TO WHICH A PROTEIN CONTAINING THE POLYPETIDE BINDS” (published 2002).

Series [1] concerns the target T1, GCM N243 (MBP fusion) (Drosophila, UniProt Q27403 SEQ:1-243).
T1 chain: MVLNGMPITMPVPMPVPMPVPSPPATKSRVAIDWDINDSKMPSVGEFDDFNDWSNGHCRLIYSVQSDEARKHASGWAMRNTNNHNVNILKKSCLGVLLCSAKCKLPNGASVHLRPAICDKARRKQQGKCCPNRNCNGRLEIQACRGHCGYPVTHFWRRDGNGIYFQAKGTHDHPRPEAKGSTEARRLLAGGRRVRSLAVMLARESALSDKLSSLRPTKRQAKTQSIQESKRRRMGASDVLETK
Put plainly: competition; no competition. As to conditions: tags: MBP fusion (pMAL, E. coli).

Series [2] concerns the target T2, hGCMa N-terminal fragment (Homo sapiens, UniProt Q9NP62 SEQ:1-171).
T2 chain: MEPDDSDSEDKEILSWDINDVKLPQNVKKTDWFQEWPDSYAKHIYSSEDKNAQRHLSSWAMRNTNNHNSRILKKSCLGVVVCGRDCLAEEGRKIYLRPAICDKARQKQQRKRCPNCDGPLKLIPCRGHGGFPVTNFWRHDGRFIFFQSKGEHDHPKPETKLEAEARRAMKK
Put plainly: competition; results stated similar to those of GCM. How it is done: Gel shift assays and competition assays were carried out in the same manner as above by using proteins obtained by causing expression of DNA fragments of up to the 171-st amino acid residue of hGCMa, giving results similar to those of GCM.

The target in series [3] is T1, GCM N243 (MBP fusion). Briefly: competition; dose-dependent competition of labeled 200 bp repo fragment, 1-1000x. As to conditions: tags: MBP fusion (pMAL, E. coli).

B1: competitor b without GCM site (dsDNA)
DNA 1: TGTGTGGAATTGTGAGCGGATATACTAATTTGTTAGGTTTTCCCAGTCACGACG
DNA 2: CGTCGTGACTGGGAAAACCTAACAAATTAGTATATCCGCTCACAATTCCACACA
Regarding B1, the binding result (with GCM N243 (MBP fusion) [1]; in series [2]) was “no binding” each time.

B2: competitor a with GCM site (dsDNA)
DNA 1: TGTGTGGAATTGTGAGCGGACCTACCCGCATTACGGGTTTTCCCAGTCACGACG
DNA 2: CGTCGTGACTGGGAAAACCCGTAATGCGGGTAGGTCCGCTCACAATTCCACACA
B2: the binding result (in the series with GCM N243 (MBP fusion) [3]; in series [2]) was “binds” throughout.
